B1: TPR t1 (parent)
chain: GACCAAUCUGCCCUCAGAGCUCGAGAACAUCUUCGGAUGCAGAGGAGGCAGGCUUCGGUGGCGCGAUAGCGCCAACGUCCUCAACCUCCAAUGCAUCCCACCACAUGAUGAUGCCUGAAGAGCCUUGGUUUUUUG

In the data set the parent is B1. Kind of data set: polymerase ribozyme fitness, log enrichment relative to wild type (log ratio); higher = more active; in vitro selection for triplet polymerase activity. In short, it runs like this: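 Streptavidin-bead capture of gel-excised extended constructs, followed by RT-PCR, closed a single triplicate in vitro selection round. That round began by annealing PCR-built, transcribed mutant libraries of each subunit of a heterodimeric triplet polymerase ribozyme with a biotinylated primer, the partner subunit and triplets, then incubating them frozen at −7 °C. After Illumina sequencing of inputs and outputs, genotypes needed ≥10 input reads and ≥1 read per output. Fitness is the base-2 logarithm of genotype enrichment over wild-type enrichment, using inverse-variance-weighted replicate averages.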
In the case of C22G A46C C62G A74U, the “polymerase ribozyme fitness (log ratio)” value was -6.42.
For G23C C123A the value was -6.41; for C20U C124U, -0.364; for C22A A29G A50G U116G U129C, -5.9.
For U21A the value was -0.29; for U21G, -0.965; for U21C, -0.0619.
Next, C20U A100U G120U: -1.89; C20G G23U U32A C98G C123G U131G: -6.64.
As for C22G C64U, the “polymerase ribozyme fitness (log ratio)” value is -2.83.
Next, C20G G61U C79A G117C C123A: -6.44; C20G G36A A43C U96G G117C: -5.42.
Next, C22G U87A C114A: -2.89.
Next, C22A G69U: -3.88; C22U C49U C89A C123U: -6.02; U21A A27G G51U U116C: -7.29.
With C22A C73G C82A G120U U125C, the “polymerase ribozyme fitness (log ratio)” value is -5.37.
Consider U21C G71U C86G G117A, for which the “polymerase ribozyme fitness (log ratio)” value was -5.6.
For C22U A43G G61U C115A the value was -5.75; for U21G C102A, -2.91.
Next, C20U U32C G71A U112C: -1.25; C22U G63C U78G U112A: -4.23; U21A C49A C56A A121U: 0.0625.
For C20G G45A U130C the value was -5.42; for C22G A50U U96C A119G, -3.9; for U21G C62G C101U, -5.
For the variant U21A A37C A46U G77A C89U U131C, the “polymerase ribozyme fitness (log ratio)” value was -5.66.
For C22G G47A G120U G127U the value was -3.88; for C20U U38G C62G G120C, -4.8.
For the variant G23C C56A U59G G113A, the “polymerase ribozyme fitness (log ratio)” value is -6.74.
Next, U21G G45U U92G: -5.73.
Next, U21A A43C: -2.9; G23A G61A U87C: -6.59.
Next, C22A C86G: -4.67; C22U C82U: -4.56.
As to U21C C64A C99G U112G, the “polymerase ribozyme fitness (log ratio)” value was -8.45.
Next, C22G C70U: -3.87; C22G G63C: -4.13; C20U G71C A75G C82U U87G A90U A105G G113U: -3.34.
Next, C22U C53A C72U C98U C123U: -4.73.
For C20U G52C the value was -2.19; for U21A U59A C62A, -3.07; for G23C C34U U38A A46U C86G G110C, -8.09.
Regarding U21C U55C G63U A105U, the “polymerase ribozyme fitness (log ratio)” value was -4.84.
C22G G69C G77U C101G C115U: the “polymerase ribozyme fitness (log ratio)” value is -5.91.
As for C20U A100U, the “polymerase ribozyme fitness (log ratio)” value was -2.
For C22U G44C the value was -4.2; for C22A A29G C40G G61U C72A A83U U131A, -5.02; for C22A G45A G63C C88U, -5.31.
For C22A A75U U78A U116G the value was -4.77; for U21C G69U C88U C94G C124U, -1.5.
For G23C U59C C98U C101A U112C the value was -7.02; for C20G G93A, -5.03; for C22G G61A G93A, -3.75.
For the variant C20G G122A, the “polymerase ribozyme fitness (log ratio)” value is -4.
On to C22U G63C G120U, for which the “polymerase ribozyme fitness (log ratio)” value is -4.89.
Next, C22U C53G G61A U106A A118G: -5.66.
For C22U C72A the value was -3.91.
Next, U21C G60U G110A: -3.6; C22U U55G U106A: -3.56; C20U G77A U87A G110A: -4.79.
As to C20U A50G, the “polymerase ribozyme fitness (log ratio)” value is -1.33.
For C20G G48A G52A the value was -6.
Next, C20G G39A G57A U109A: -3.93; C20U G69A: -3.34; C22G A41U G44U: -5.29.
Next, C20U G42C C88G U112A G117A: -6.
For the variant U21C A27U C123U, the “polymerase ribozyme fitness (log ratio)” value was -4.79.
Next, C22G C94U C101G: -5.92; C20U A41C U116C: -4.23.
For U21C G42A C88U C89A the value was -3.87; for U21A U59G U81G C82G C115U, -4.27; for U21C G61A C114U U125A, -1.45.
For C22G U112G the value was -2.35; for U21A A43C C73G U78C, -3.93; for U21G C22U U92G C104A U109A, -5.96.
As for C22A G45A C53G C88G A111U, the “polymerase ribozyme fitness (log ratio)” value was -3.89.
For C20U C40A G63U C123U the value was -3.75.
C20U A83G C102A: the “polymerase ribozyme fitness (log ratio)” value was -5.64.
Next, U21A C88A G110A: -4.92; C20U G57A G58C: -2.72.
For C22U A27C A41U A50U G60C C82U the value was -6.98.
For C20U U55G the value was -1.39.
Turning to G23A G120C, the “polymerase ribozyme fitness (log ratio)” value was -2.89.
Next, G23A G120A: -4.02.
For U21A U33G G42C A43U G63U G117A the value was -6.65; for U21A G39C G77A, -1.28; for C22G A41U G63U U78C C99G, -6.66.
Next, U21A A27C A68G C94A: -6.24; C22U C62A: -4.41.
G23C G45C G51U G71C G120C: the “polymerase ribozyme fitness (log ratio)” value was -6.31.
For C22G C34G C102U C123A the value was -4.03; for C20U C114U, -1.66; for C22U A37C, -4.23.
Regarding U21A C31U U78G C101G U106A G113C, the “polymerase ribozyme fitness (log ratio)” value was -4.88.
As for C22A G60C A90G C123U, the “polymerase ribozyme fitness (log ratio)” value was -5.34.
For G23A G77C G120C the value was -6.71; for C20U U106C, -2.1.
Next, U21C G63A: -0.609; U21G A27U G60U C80A C123G: -6.74; U21G C22A A27U: -4.41.
Take U21A A27C A46G C76G: the “polymerase ribozyme fitness (log ratio)” value is -2.54.
For C20U C40G G63C the value was -4.09; for U21C U112A G122C C123U, -0.556.
C22G U106C C123G U133G: the “polymerase ribozyme fitness (log ratio)” value was -2.48.
For C20U G58A C73A G93C G117U the value was -5.31; for C22U C94A, -4.02; for C20U G63U, -2.43.
For C20U C73A U81A U96A A121U C124U U134A G135U the value was -0.843; for G23A C79A G110C U125G, -6.79.
For the variant C22U C72G C82A, the “polymerase ribozyme fitness (log ratio)” value was -5.
For U21G A50U G69A A108G G110A U112G the value was -6.33; for C22A C82A C89A A111G, -6.04.
For U21A C86G, the “polymerase ribozyme fitness (log ratio)” value is -0.987.
With C20U G52C C72U, the “polymerase ribozyme fitness (log ratio)” value was -2.41.
Next, C20U A46C G69C C101U: -4.11.
For C22G C40G G65U G69A C99A C101A C123U the value was -6.38; for C20U A41C C72A C101G, -3.66; for C22G G69A, -3.64.
For C22U G117A the value was -4.58; for U21A A29G, -1.38.
Consider U21A G63A, for which the “polymerase ribozyme fitness (log ratio)” value is -1.05.
In the case of U21C A111C, the “polymerase ribozyme fitness (log ratio)” value turned out to be 0.739.
With C22A C85U, the “polymerase ribozyme fitness (log ratio)” value was -4.92.
For U21C C28A G63A U92G C124A G127A the value was -7.31; for C20G G44A G120C, -4.1.
As for C22G G42C C115U, the “polymerase ribozyme fitness (log ratio)” value was -3.85.
For C22U U38G C73U the value was -4.47.
Take U21A A43U G61A C73U A90G: the “polymerase ribozyme fitness (log ratio)” value is -3.13.
Next, C22G C72U C114A: -3.16; U21A A46G G128C G135C: -0.459; U21A C28G G57A U59G C124U U130A: -3.45.
As to C20U U54A C73G U133A, the “polymerase ribozyme fitness (log ratio)” value was -1.99.
For C22A C31G A50C C70G A111C the value was -7.1; for U21C C62U A84C, -0.909.
For U21C G45C C56U G69A U109A A111U C124G the value was -8.04; for C22A C53U G113U, -4.93.
On to U21A C49G G61U U130C, for which the “polymerase ribozyme fitness (log ratio)” value is -0.83.
For C20G G120U the value was -4.25; for C22G C72U U96C C114G C123U G127U, -7.69; for C22A G60C, -5.44.
Next, C22G A90G: -3.06.
Next, C22U G61A: -3.53.
U21A C56G U78A C85A U109G: the “polymerase ribozyme fitness (log ratio)” value is -4.63.
Consider C22U A43C C123G, for which the “polymerase ribozyme fitness (log ratio)” value was -4.32.
Next, C20U C70U A95G: -1.86; C22G C76G: -3.73; C22G G57A A68C C80A C101U C124A: -6.21.
For C20G U30G C114G G117U C124G the value was -7.61.
With G23A G39U C53A G69U G71A C115G G117A, the “polymerase ribozyme fitness (log ratio)” value is -4.86.
With C22G C34A G52C, the “polymerase ribozyme fitness (log ratio)” value is -4.14.
For C20U G39A C56A G69U C94G the value was -1.55; for C20U G44U G93A, -3.1.
Next, C22A G110A: -4.72; C20U G69U G120C: -0.787.
For C22G G71U C89A the value was -5.9; for C22G A29C G61U G63C C97A C124A, -6.38.
Regarding C20G U78C, the “polymerase ribozyme fitness (log ratio)” value is -3.43.
For U21A G128C the value was -2.29; for C22G A29C C40A G120C, -5.67.
For C22A G48U G63A C94G G120A the value was -5.73.
For G23A A50U G61U G71C A100C A105C U116C U125A G128U the value was -5.77.
Consider G23A C40A, for which the “polymerase ribozyme fitness (log ratio)” value is -4.86.
C22A A74U C123A U125G: the “polymerase ribozyme fitness (log ratio)” value is -5.38.
For C22A G57C C86U the value was -4.83; for C22G C72A C88U, -2.7.
For C22U G60A U96G the value was -4.57.
